Here are results for 1 molecule from article PMC10449786.

The target in this test is human citrullinated fibrinogen (hCitFbg) (human) (UniProt P02671). Kind of test: ELISA; Fbg or citrullinated Fbg coated (0.8 μg/mL in PBS, overnight 4 °C); recombinant SAA 10–2000 ng/mL added, 1 h at 37 °C; detected with anti-hSAA1; apparent Kd. Background: An ELISA detects its analyte on a solid surface through an enzyme-linked reagent.

B1: recombinant human serum amyloid A1 (hSAA1) (natural protein)
chain: RSFFSFLGEAFDGARDMWRAYSDMREANYIGSDKYFHARGNYDAAKRGPGGAWAAEVITDARENIQRFFGHGAEDSLADQAANEWGRSGKDPNHFRPAGLPEKY
Consider B1, for which the apparent Kd relative to hSAA1-hFbg stood at 0.5 fold.
